Experimental data as given in PMC5001929 (Cell reports, 2016).

T1: Gremlin-2 (UniProt O88273 22-168)
T1 sequence: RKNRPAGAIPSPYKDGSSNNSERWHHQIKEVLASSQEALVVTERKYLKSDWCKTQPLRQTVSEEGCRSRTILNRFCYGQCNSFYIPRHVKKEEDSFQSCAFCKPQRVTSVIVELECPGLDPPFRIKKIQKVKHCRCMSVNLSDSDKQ

B1: GDF5 (ligand, UniProt P43026 382-501, looked up)
chain: APLATRQGKRPSKNLKARCSRKALHVNFKDMGWDDWIIAPLEYEAFHCEGLCEFPLRSHLEPTNHAVIQTLMNSMDPESTPPTCCVPTRLSPISILFIDSANNVVYKQYEDMVVESCGCR
B2: BMP2 (ligand, UniProt P12643 283-396, looked up)
chain: QAKHKQRKRLKSSCKRHPLYVDFSDVGWNDWIVAPPGYHAFYCHGECPFPLADHLNSTNHAIVQTLVNSVNSKIPKACCVPTELSAISMLYLDENEKVVLKNYQDMVVEGCGCR

Target: T1, Gremlin-2
Experiment: SPR

| Binder | Kd [nM] |
| --- | --- |
| B1 | 146 |
| B2 | 9 |
